Residue numbers refer to the chain shown, from its start. One block for each binder: values may come before it.
Experiments:
Human CD19-his protein = biological target: T1, Human CD19-his protein (human, UniProt P15391 20-291); assay: SPR Biacore, Ab captured on Protein A, CD19-His analyte
T1 construct: bought protein; also called recombinant human CD19-His; CD19 full-length protein; not shown: His tag
T1 sequence (looked up): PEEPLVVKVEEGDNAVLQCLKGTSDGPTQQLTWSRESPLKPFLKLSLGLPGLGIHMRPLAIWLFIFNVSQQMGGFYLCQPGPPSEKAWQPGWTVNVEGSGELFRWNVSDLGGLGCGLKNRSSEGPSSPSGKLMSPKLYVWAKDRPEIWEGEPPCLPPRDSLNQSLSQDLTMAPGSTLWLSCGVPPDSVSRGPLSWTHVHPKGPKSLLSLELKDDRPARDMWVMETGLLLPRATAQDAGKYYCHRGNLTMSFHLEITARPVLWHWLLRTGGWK
Protocol: A sample buffer and a running buffer were HBS-EP+ (10 mM HEPES, 150 mM NaCl, 3 mM EDTA and 0.05% surfactant P20) (GE Healthcare; BR-1006-69). The flow-through cell was set to 25° C. The sample block was set to 16° C. Both were pretreated with the running buffer. In each cycle, an antibody to be detected was first captured with a Protein A chip, and then a single concentration of CD19 antigen protein was injected. The binding and dissociation processes of the antibody and the antigen protein were recorded, and finally Glycine pH 1.5 (GE Healthcare; BR-1003-54) was used to complete chip regeneration. The binding was measured by injecting different concentrations of recombinant human CD19-His proteins in a solution for 240 s with a flow rate of 30 μl/min. The concentration started from 200 nM (see the detailed results for the actual concentration in the test) and was diluted at 1:1, making a total of 5 concentrations. The dissociation phase was monitored for up to 600 s and was triggered by switching from sample solution to running buffer. The surface was regenerated by washing with a 10 mM glycine solution (pH 1.5) for 30 s at a flow rate of 30 μl/min. Bulk refractive index difference was corrected by subtracting the response obtained from the goat anti-human Fc surface. Blank injection was also subtracted (=double reference). For calculation of apparent KD and other kinetic parameters, Langmuir 1:1 model was used.

[1] = biological target: T2, human CD19 exon1-3-His tag protein (human, UniProt P15391 20-186, limits assumed); assay: ELISA on coated human CD19 exon 1-3-His
T2 construct: membrane-distal part of the extracellular region, made in HEK293E cells; not shown: His tag
T2 sequence (looked up): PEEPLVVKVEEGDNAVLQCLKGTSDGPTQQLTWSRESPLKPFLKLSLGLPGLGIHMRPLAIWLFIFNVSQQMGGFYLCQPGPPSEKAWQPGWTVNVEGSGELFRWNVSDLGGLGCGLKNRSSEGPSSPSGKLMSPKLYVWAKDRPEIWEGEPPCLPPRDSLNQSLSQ
Protocol: Human CD19-his protein (purchased from ACROBiosystems, catalog number: CD9-H52H2) was diluted with PBS to a final concentration of 4 μg/mL, and then added to a 96-well ELISA plate at 100 μl/well. The plate was sealed with a plastic film and incubated overnight at 4° C., the plate was washed 2 times with PBS the next day, and then a blocking solution [PBS+2% (w/w) BSA] was added for blocking at room temperature for 2 h. The blocking solution was poured off, and 100 nM gradiently diluted CD19 chimeric antibody or control antibody was added at 50 μl/well. After incubation at 37° C. for 2 h, the plate was washed 3 times with PBS. […] TMB substrate was added at 50 μl/well, and incubated at room temperature for 10 min, and then a stop solution (1.0 N HCl) was added at 50 μl/well. The OD450 nm values were read by an ELISA microplate reader (Multimode Plate Reader, EnSight, purchased from Perkin Elmer).
CD19 protein contains 4 exons in the extracellular region, in which exons 1-3 are located at the membrane-distal end and exon 4 is located at the membrane-proximal end. […] To identify the distribution of antigen binding epitopes of the chimeric antibodies, human CD19 exon 1-3-His (membrane-distal end) was used to coat at 2 μg/mL according to the ELISA method in example 5.1.

Kd (Human CD19-his protein): 0.359 nM
koff (Human CD19-his protein): 8.52e-05 s⁻¹
kon (Human CD19-his protein): 237000 M⁻¹ s⁻¹
binding result [1]: no binding (tested: 100 nM)
B2: F4.180.1 (antibody, human IgG1, V domains shown)
VH: EVQLQQSAPELVKPGASVKMSCKTSGYTFTENIIHWVKQTHGKSLEWIGGINPDNGGTSYHQKFKGRTTLTIDKSSSTAYMELRSLTSDDSAVFFCARQAPLYWYFDIWGAGTTVTVSS
VL: DIVLTQSPASLAVSLGQRATISCRASESVDSYGNSLMHWFQQKPGQPPRLLIYRASNLESGIPARFSGSGSRTDFTLTITPVEADDVATYYCQQSNEDPWTFGGGTKLEIK
notes: human-murine chimeric antibody, human IgG1 constant

Kd (Human CD19-his protein): 8.13 nM
koff (Human CD19-his protein): 0.000526 s⁻¹
kon (Human CD19-his protein): 64700 M⁻¹ s⁻¹
binding result [1]: no binding (tested: 100 nM)
B3: F3.13.2 (antibody, human IgG1, V domains shown)
VH: DVQLQESGPGLMKPSQSLSLTCSVTGYSITSGYYWNWIRQFPGNKLEWMGYISYDGSNNYNPSLKNRFSITRDTSKNQFFLKLNSVTTEDTATYYCARRKLTGGPYFDYWGQGTTLTVSS
VL: DIVLTQSPASLAVTLGQRATISCRASESVSFHGFHIMHWYQQKPGQPPKLLIYAASHLVSGVPDRFSGSGSETDFTLNIHPVEEEDAAAYFCQQSVEDPWTFGGGTKLEIK
notes: as for B2

Kd (Human CD19-his protein): 1.09 nM
koff (Human CD19-his protein): 0.000217 s⁻¹
kon (Human CD19-his protein): 200000 M⁻¹ s⁻¹
binding result [1]: no binding (tested: 100 nM)
B7: F4.107.12 (antibody, human IgG1, V domains shown)
VH: EVQLQQSGPELVKPGASVKMSCKASGYTFTSYVLHWVRQKPGQGLEWIGYFNPYNDGTEYNEKFKGKAILTSDKSSSTAYMELNSLTSEDSAVYYCVGGTYYYGSSYPFAYWGQGTLVTVST
VL: DVVMTQISLSLPVSLGDQASISCRSSQSLIHSNGNTYLQWYLQKPGQSPKLLIYKVSNRLSGVPDRFSGSGSGTDFTLKISRVEAEDLGVYFCSQSTHVPYTFGGGTKLEIK
notes: as for B2

Kd (Human CD19-his protein): 1.64 nM
koff (Human CD19-his protein): 0.000313 s⁻¹
kon (Human CD19-his protein): 191000 M⁻¹ s⁻¹
binding result [1]: no binding (tested: 100 nM)
B9: F3.64.4 (antibody, human IgG1, V domains shown)
VH: EVQLQQSGPELVKPGASVKISCKASGYTFTDYHINWVKQSHGKSPEWIGDINPNNGGTTYNQKFKDKATLTVDKSSSTAFMELRSLTSEDSAVYYCARFITTVVAWYFDVWGTGTTVTVSS
VL: DIQMTQSPASLSVSVGETVTITCRASENIYSNLAWYQQKQGKSPQLLVYAATNLADGVPSRFSGSGSGTQYSLKINSLQSEDFGNYYCQRFWDTPRTFGGGTKLEIK
notes: as for B2

Kd (Human CD19-his protein): 3.71 nM
koff (Human CD19-his protein): 0.000918 s⁻¹
kon (Human CD19-his protein): 247000 M⁻¹ s⁻¹
binding result [1]: no binding (tested: 100 nM)
B10: F4.96.6 (antibody, human IgG1, V domains shown)
VH: EIQLQQSGPELVKPGASVKVSCKASGYAFSAYNIYWVKQSHGKSLEWIGYIDPYNSGTTYNQKFRGKATLTVDKSSNTAYMHLSSLTSEDSAVYYCTRDGDAMDYWGQGTSVTVSS
VL: EILLTQSPAIIAASPGEKVTITCSASSGVIYMNWYQQKPGSSPKIWIYDVSTLASGVPARFSGSGSGTSFSFTINSMEAEDVATYYCQQRSSYPYTFGGGTKLEIK
notes: as for B2

Kd (Human CD19-his protein): 3.67 nM
koff (Human CD19-his protein): 0.000312 s⁻¹
kon (Human CD19-his protein): 85100 M⁻¹ s⁻¹
binding result [1]: no binding (tested: 100 nM)
B11: F3.83.9 (antibody, human IgG1, V domains shown)
VH: DVQLQESGPGLVKPSQSLSLTCSVTGYSITSGYYWNWIRQFPGNKLEWMGYISYDGGNNYNPSLKNRISITRDTSKNQFFLKLNSVTTEDTATYFCAREDYSNWYFDVWGTGTTVTVSS
VL: DIVLTQSPASLAVSLGQRATISCRASQSVSKSSYSYMHWYQQKPGQSPKLLIKYASILKSGVPARFSGSGSGTDFTLNIHPVEEEDTATYYCQHSWEIPWTFGGGTKLEIK
notes: as for B2

Further lines, the binder ahead of its results:

B1: F3.40.14 (antibody, human IgG1, V domains shown)
VH: QAQLQQSGPELVKPGASVKISCKASGYAFSGSWMNWVQQRPGKGLEWIGRIYPGDGDTYYSGKFKDKAILTADTSSSTAYMQLSSLTSEDSAVYFCAQLRSRYVMDYWGQGASVTVSS
VL: DIVLTQSPASLAVSLGQRATISCRASESVSIHGTHLMHWYQQKPGQPPRLLIYAASNLESGVPARFSGSGSETDFTLNIHPVEEEDAATYFCQQGIDDPYTFGGGTKLEIK
notes: as for B2
Kd (Human CD19-his protein): 1.7 nM
koff (Human CD19-his protein): 0.000143 s⁻¹
kon (Human CD19-his protein): 84300 M⁻¹ s⁻¹
binding result [1]: no binding (tested: 100 nM)

B4: F4.125.12 (antibody, human IgG1, V domains shown)
VH: EVKLVESGGGLVQPGGSLKLSCAASGFTFSTYTMSWVRQTPEKRLEWVAFISSGGGHINYPDTVKGRFTISRDNAKNTLYLQMSSLKSEDTAMYYCARHSYWFFDVWGAGTTVTVSS
VL: DVQITQSPSYLAASPGETITINCRASKNIDTYLAWYQEKPGKTNKLLIYSGSTLQSGIPSRFRGGGSGTDFTLTICSLEPEDFAMYYCQQHNEYPLTFGAGTKLELK
notes: as for B2
Kd (Human CD19-his protein): 0.734 nM
koff (Human CD19-his protein): 0.000204 s⁻¹
kon (Human CD19-his protein): 278000 M⁻¹ s⁻¹
binding result [1]: no binding (tested: 100 nM)

B5: F3.81.2 (antibody, human IgG1, V domains shown)
VH: QVQLQQPGAELVMPGASVKLSCKASAYTFTNYWMHWVKQRPGHGLEWIGEIDPSDSYTDYNQNFKAKATLTVDKSSSTAYMQLSSLTSEDSAVYYCARLMGRYFDVWGTGTTVTVSS
VL: DIVMTQSHKFMSTSVGDRVSITCKASQDVSAAVAWYQQKPGQSPKLLINSASYRYTGVPDRFTGSGSGTDFTFTISSVQAEDLAVYYCQQHYSTPLTFGAGTKLELR
notes: as for B2
Kd (Human CD19-his protein): 0.766 nM
koff (Human CD19-his protein): 0.000104 s⁻¹
kon (Human CD19-his protein): 135000 M⁻¹ s⁻¹
binding result [1]: no binding (tested: 100 nM)

B6: F3.126.15 (antibody, human IgG1, V domains shown)
VH: QVQLQQPGAELVMPGASVKLSCKASGYTFTSYWMHWVKQRPGQGLEWIGEIDPSDSYTTYNQNFKGKATLTVDISTSTAYIQLSNLTSEDSAVYYCARLTGNYIHYWGQGTTLTVSS
VL: B5 VL with A31P, K39R, S43C, N49F, A51S, Y55S, T94L, R107K
notes: as for B2
Kd (Human CD19-his protein): 13 nM
koff (Human CD19-his protein): 0.000799 s⁻¹
kon (Human CD19-his protein): 61300 M⁻¹ s⁻¹
binding result [1]: no binding (tested: 100 nM)

B8: F4.145.9 (antibody, human IgG1, V domains shown)
VH: EVQLVESGGGLVKPGGSLKLSCAAAGFAFSSYDMSWVRQIPEKRLEWVAYISAGGGNTYFLDTVKGRFTISRDHAKNTLSLQMSSLKSEDTAMYFCVRHGDYYRYFYAMDYWGQGSSVTVSS
VL: DIVMTQSHKFMSTSVGDRVSITCKASQDVGTAVAWSQQKPGQSPKLLIYWASTRHTGVPDRFTGSGSGTDFTLTISNVQSEDLADYFCQQFVTYPYTFGGGTKLEIK
notes: as for B2
Kd (Human CD19-his protein): 3.68 nM
koff (Human CD19-his protein): 0.000591 s⁻¹
kon (Human CD19-his protein): 161000 M⁻¹ s⁻¹
binding result [1]: no binding (tested: 100 nM)

B12: F3.113.16 (antibody, human IgG1, V domains shown)
VH: QVQLQQPGAELVKPGASVKLSCKASGYTFTNYWMQWVKQRPGQGLEWIGEIDPSDSYINYNQKFKGKATLTADTSSSTAYMQLSSLTYEDSAVYYCARPVTVPWYFDVWGTGTTVTVSS
VL: EIVLTQSPTTMAASPGEKITITCSATSSISSNYLHWYQQKPGFSPKLLIYRTSNLASGVPARFSGSGSGTSYSLTIGTMEAEDVATYYCQQGSAIPRIFTFGSGTKLEIK
notes: as for B2
Kd (Human CD19-his protein): 12.4 nM
koff (Human CD19-his protein): 0.00105 s⁻¹
kon (Human CD19-his protein): 84800 M⁻¹ s⁻¹
binding result [1]: no binding (tested: 100 nM)

B13: F4.152.7 (antibody, human IgG1, V domains shown)
VH: QVQLQQPGAELVKPGASVKLSCKASGYTFTSYWMHWVKQRPGQGLEWIGEIDPSDSYTNYNQKFKGKATLTADKSSSTAYMQLSGLTSEDSAVYHCARGGDYDGYYVMDYWGQGTSVTVSS
VL: B12 VL with T26S, E82D, A94Y
notes: as for B2
Kd (Human CD19-his protein): 0.337 nM
koff (Human CD19-his protein): 8.9e-05 s⁻¹
kon (Human CD19-his protein): 264000 M⁻¹ s⁻¹
binding result [1]: no binding (tested: 100 nM)
